Results on one substance are retold here after patent publication US20030064916A1.

This assay deals with HLA-A2.1 (human), A*02:0. Description: cell-based or functional assay.

For the substance “A2-specific monoclonal antibody PA2.1 (ATCC HB 117)”, the Specific 51Cr release (%) by CTL A2 149, E:T 10, BT 549 targets, with anti-A2 (53 without) came to 37%; the Specific 51Cr release (%) by CTL A2 149, E:T 10, MCF7 targets, with anti-A2 (38 without) came to 13%; the Specific 51Cr release (%) by CTL A2 149, E:T 10, MDA 231 targets, with anti-A2 (24 without) stood at 5%; the Specific 51Cr release (%) by CTL A2 149, E:T 10, Ramos A2.1 targets, with anti-A2 (39 without) was 12%. Besides, the Specific 51Cr release (%) by CTL A2 149, E:T 10, SW 480 targets, with anti-A2 (55 without) worked out at 26%; the Specific 51Cr release (%) by CTL A2 264, E:T 10, BT 549 targets, with anti-A2 (79 without) worked out at 47%; the Specific 51Cr release (%) by CTL A2 264, E:T 10, MCF7 targets, with anti-A2 (79 without) is 38%; the Specific 51Cr release (%) by CTL A2 264, E:T 10, MDA 231 targets, with anti-A2 (31 without) was 10%. Moreover, the Specific 51Cr release (%) by CTL A2 264, E:T 10, Ramos A2.1 targets, with anti-A2 (43 without) was 0% and the Specific 51Cr release (%) by CTL A2 264, E:T 10, SW 480 targets, with anti-A2 (59 without) is 17%.
